Laboratory results: doi:10.1101/528042 (bioRxiv, 2019)

Target: the molecule itself
Assay: SEC

B1: S-OPA1 (short S1 isoform of splice form 1 human OPA1), wild type (natural protein, UniProt O60313 196-960, looked up)
chain: TDRGSESDKHFRKVSDKEKIDQLQEELLHTQLKYQRILERLEKENKELRKLVLQKDDKGIHHRKLKKSLIDMYSEVLDVLSDYDASYNTQDHLPRVVVVGDQSAGKTSVLEMIAQARIFPRGSGEMMTRSPVKVTLSEGPHHVALFKDSSREFDLTKEEDLAALRHEIELRMRKNVKEGCTVSPETISLNVKGPGLQRMVLVDLPGVINTVTSGMAPDTKETIFSISKAYMQNPNAIILCIQDGSVDAERSIVTDLVSQMDPHGRRTIFVLTKVDLAEKNVASPSRIQQIIEGKLFPMKALGYFAVVTGKGNSSESIEAIREYEEEFFQNSKLLKTSMLKAHQVTTRNLSLAVSDCFWKMVRESVEQQADSFKATRFNLETEWKNNYPRLRELDRNELFEKAKNEILDEVISLSQVTPKHWEEILQQSLWERVSTHVIENIYLPAAQTMNSGTFNTTVDIKLKQWTDKQLPNKAVEVAWETLQEEFSRFMTEPKGKEHDDIFDKLKEAVKEESIKRHKWNDFAEDSLRVIQHNALEDRSISDKQQWDAAIYFMEEALQARLKDTENAIENMVGPDWKKRWLYWKNRTQEQCVHNETKNELEKMLKCNEEHPAYLASDEITTVRKNLESRGVEVDPSLIKDTWHQVYRRHFLKTALNHCNLCRRGFYYYQRHFVDSELECNDVVLFWRIQRMLAITANTLRQQLTNTEVRRLEKNVKEVLEDFAEDGEKKIKLLTGKRVQLAEDLKKVREIQEKLDAFIEALHQEK
stoichiometry N: 2
